Assay results published in patent publication US20230295310A1 (ABCELLERA BIOLOGICS, published 2023).

Molecular target: human CD3 (human, UniProt P07766 23-207; P04234 22-171; P09693 23-182)
Assay: cell-based or functional assay

Chain of human CD3 (P07766 23-207, chain 1 of 3): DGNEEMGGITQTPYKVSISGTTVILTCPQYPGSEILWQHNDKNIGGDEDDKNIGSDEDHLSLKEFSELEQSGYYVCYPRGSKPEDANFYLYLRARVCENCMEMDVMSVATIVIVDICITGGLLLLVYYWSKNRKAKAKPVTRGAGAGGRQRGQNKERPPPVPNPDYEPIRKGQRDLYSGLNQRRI
Chain of human CD3 (P04234 22-171, chain 2 of 3): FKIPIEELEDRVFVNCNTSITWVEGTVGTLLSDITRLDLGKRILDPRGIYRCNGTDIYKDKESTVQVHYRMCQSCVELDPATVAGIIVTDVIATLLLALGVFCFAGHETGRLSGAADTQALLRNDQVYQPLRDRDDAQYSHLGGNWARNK
Chain of human CD3 (P09693 23-182, chain 3 of 3): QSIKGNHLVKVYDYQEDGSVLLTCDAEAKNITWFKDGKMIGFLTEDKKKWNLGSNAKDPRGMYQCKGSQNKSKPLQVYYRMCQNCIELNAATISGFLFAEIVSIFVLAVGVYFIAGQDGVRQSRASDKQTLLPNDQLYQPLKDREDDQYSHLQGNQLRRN

| CD4 EC50 (nM); CD69/CD25 on human T cells, plate-coated antibody [nM] | CD8 EC50 (nM); CD69/CD25 on human T cells, plate-coated antibody [nM] | Binder |
| --- | --- | --- |
| 18.3 | 18.3 | mAb 53 (antibody, V domains shown) VH: QVQLVQSGAEVKKPGASVKVSCKASGYTFTSYDINWVRQATGQGLEWMGWMNPKSGKTGYAQKFQGRITMTRNTPISTVYMDLSSLRSEDTAVYYCAREGHYDFWTGYYSFDYWGQGTLVTVSS VL: DIQMTQSPSSLSASVGDRVTITCRASQGIRNDLGWYQQTPGKAPKRLIYAASSLQSGVPSRFSGSGSGTEFTLTISSLQPEDFATYYCLQHYSYPYTFGQGTKLEIK |
| 22 | 21.3 | mAb 67 (antibody, V domains shown) VH: EVQLVESGGDLVQPGRSLRLSCAASGFTFDDCVIHWVRQAPGKGLEWVSGITWNSGRIGYADSVKGRFTISRDNAKNSLYLQMNSLRVEDTALYYCAKEGNYDFWSTYYRGYFDLWGRGTLVTVSS VL: DIQMTQSPSSLSASVGDRVTITCRASQGIRNDLGWYQQKPGIAPKRLIYAASSLQGGVPLRFSGSGSGTEFTLTISSLQPEDFATYYCLQHNSYPYTFGQGTKLEIK |
| 8.54 | 8.91 | mAb 55 (antibody, V domains shown) VH: QVQLEQSGAEVKKPGASVKVSCKTSGYIFANYDINWVRQATGQGLEWMGWMNPKSGKAGYAQKFQGRVTMTSNTPINTAYMELSSLRSEDTAVYYCAREGHYDFWRGFYSFDYWGQGILVTVSS VL: DIQMTQSPSSLSASVGDRVTITCRASQGIRNDLGWYQQKPGKAPKRLIYTASSLQSGVPSRFSGSGSGTEFTLTISSLQPEDFATYFCLQYNTYPYTFGQGTKLEIK |
| 13.3 | 15.2 | mAb 54 (antibody, V domains shown) VH: EVQLEESGGGLVQPGGSLRLSCAASGFTFSRYSMNWVRQAPGKGLEWFSYISSSSRTIYYADSVKGRFTMSRDNAKNSLYLQMNSLRDEDTAVYFCARGDYYDSEGMDVWGKGTTVTVSS VL: DIQMTQSPSTLSASVGDRVTITCRASQTITTWLAWYQQKPGKAPKLLIYKASTLESGVPSRFSGSGSGTEFTLTISSLQPDDFATYHCQQYKTFSYTFGQGTKLDIK |
| 14.6 | 15.1 | mAb 170 (antibody, V domains shown) VH: EVQLVESGGGLVRPGRSLRLSCAASGFTFDDYTMHWVRQAPGKGLEWVSGISWNSGSIGYADSVKGRFTISRDNAKNSLYLQMNSLRAEDTALYYCSKDSSGYGYYLNYSLDVWGKGTTVTVSS VL: not shown |
| 10.4 | 9.87 | mAb 179 (antibody, V domains shown) VH: EVQLVESGGGLVQPGRSLRLSCAASGFTFDDYTMHWVRQTPGKGLEWVSDISWNSGSIGYADSVKGRFTISRDNAKNTLYLQMNSLRAEDTALYYCVKDSSGYGHYLYYYMDVWGKGTTVTVSS VL: DIQMTQSPSSLSASVGDRVTITCRASQSIRNYLNWYQQSPGRAPKLLIFSASSLQSGVPSRFSGSGSGTDFTLTISSLQPEDFVTYYCQQRYSTPITFGQGTRLEIK |
| 12.5 | 12.3 | mAb 173 (antibody, V domains shown) VH: EVQLVESGGGLVQPGRSLRLSCAASGFTFDDYTMHWVRQVPGKGLEWVSDISWNSGSVGYADSVKGRFTISRDNAKNSLYLQMNSLRAEDTALYYCVKDSSGYGHYFHYYMDVWGKGTTVTVSS VL: DIQMTQSPSSLSASVGDRVTITCRASQSISNYLNWYQVKPGKAPKVLIYAASSLQSGVPSRFSGSGSGTDFTLTISSLQPEDFVSYYCHQSYNTPITFGQGTRLEIK |
| 13 | 13.2 | mAb 66 (antibody, V domains shown) VH: QVQLVQSGAEVKKPGASVKVSCKASGYTVTGYYMHWVRQAPGQGLEWMGWINPNSGGTNFAQNFQGRVTMTRDTSISTFYMDLSRLRSDDTAVYYCARGGAPVSYWFFDLWGRGTLVTVSS VL: DIQMTQSPSSLSASVGDRVTITCRASQSISRYLNWYQQKPGKAPKVLIYNTSSLKSGVPSRFSGSGSGTDFTLTISSLQPEDFATLYCQQSHSTPFTFGPGTKVDIK |
| 6.38 | 6.37 | mAb 176 (antibody, V domains shown) VH: EVELVESGGGLVQPGRSLRLSCAASGFKFDDYTMHWVRLPPGKGLEWVSGISWNSGTIDYGDSVKGRFTISRDNAKNSLYLQMNSLRVEDTALYYCAKDTSGYGHYFYYYMDVWGKGTTVTVSS VL: DIQMTQSPSSLSASIGDRVSITCRTSQIINNYLNWYQQKPGKAPKVLIYSASSLQSGVPSRFSGSGSGTDFTLTINSLQPEDFATYYCQQSYNFPITFGQGTRLELK |
| 14.3 | 14.2 | mAb 177 (antibody, V domains shown) VH: EVQLVESGGGLVQPGMSLRLSCAASGFTFDDYTMHWVRQSPGKGLEWVAGISWNSGTIGYGDSMKGRFTISRDNAKNSLDLQMNSLRVEDTALYYCAKDTSGYGHYYYYFMDVWGKGTTVTVSS VL: DIQMTQSPSSLSASIGDRVSITCRTSQIINNYLNWYQQKPGKAPKLLIYSASSLQSGVPSRFSGSGSGTDFTLTLSSLQPEDFATYFCQQSYNFPITFGQGTRLELK |
| 6.3 | 6.36 | mAb 167 (antibody, V domains shown) VH: EVHLVESGGGLVQPGRSLRLSCAASGFTFDDYAMHWVRQAPGKGLEWVSGISWNSGTIGYADSVKGRFTISRDNAKNSLYLEMNSLRAEDTALYYCAKDSSGYGHYYHYYIDVWGTGTTVTVSS VL: EIVMTQSPATLSVSPGGRATLSCRASQSVGSNLAWYQQKPGQAPRLLIYDASTRATGIPARFRGSGSGTEFTLTISGLQSEDFAVYYCQLYYNWPHFGQGTRLEIK |
| 12.6 | 12.6 | mAb 178 (antibody, V domains shown) VH: EVQLVESGGGLVQPGRSLRLSCAASGFTFDDYTMHWVRQAPGKGLEWVSDISWNSGTIGYADSVKGRFTISRDNAKNSLYLQMNSLRAEDTALYYCVKDSSGYGHYYKYYMDVWGKGTTVTVSS VL: DIQMTQSPSSLSASVGDRVTITCRASQSISNYLNWYQQKAGKVPKVLIYGSSSLQSGVPSRFSGSGSGTDFTLTISSLQPEDFASYYCQQTYSSPLTFGGGTKVDFK |
| 6.86 | 6.71 | mAb 171 (antibody, V domains shown) VH: EVQLVESGGGLVQPGRSLRLSCAASGFTFADYTMHWVRQAPGQGLEWVSGISWNSGSIDYADSVKGRFIISRDNAKKTLYLQMNSLRAEDTALYYCAKDSSGYGHYYFYYLDVWGKGTTVTVSS VL: EIVMTQSPATLSVSPGERATLSCRASQSVSSNLAWYQQKPGQAPRLLIYSTSTRATGIPARFSGSRSGTEFTLTISSLQSEDSAVYYCQQYNNWPHFGQGTRLEIK |
| 23.2 | 22.9 | mAb 172 (antibody, V domains shown) V domain 1: EVQLVESGGGLVQPGRSLRLSCTTSGFTFDDYTMHWVRQVPGKGLEWVSDISWNSGSVGYADSVKGRFTISRDNAKNSLYLQMNSLRAEDTALYYCVKDSSGYGHYFHYYMDVWGKGTTVTVSS V domain 2: EVQLVESGGGLVQPGRSLRLSCTTSGFTFDDYTMHWVRQVPGKGLEWVSDISWNSGSVGYADSVKGRFTISRDNAKNSLYLQMNSLRAEDTALYYCVKDSSGYGHYFHYYMDVWGKGTTVTVSS |
| 6.54 | 6.57 | mAb 180 (antibody, V domains shown) VH: EVNLVESGGGLVQPGRSLRLSCAASGFTFDDYTMHWVRQVPGKGLEWVSNISWNSGSLGYADSVKGRFTISRDNAKDSLYLQMNSLRVEDTALYYCAKDSSGYGHYNSYYMDVWGKGTTVTVSS VL: DIQMTQSPSSLSASVGDRVTITCRASQSIRNYLNWYQQKPGKAPKVLIYSASSLQSGVPSRFSGSGSGTDFTLTISSLQPEDFASFYCQQTYSTPITFGQGTRLEIK |
| 6.48 | 6.57 | mAb 165 (antibody, V domains shown) VH: EVQLVESGGGLVKTGGSLRLSCVASGFSFKKAWMNWVRQAPGKGLEWVGRIKRNTDGGTADYAAPVKGRFTLSRDDSKRTLYLQMNSLKTEDTAVYYCTTLDSSSRYVGYYYMDVWGKGTTVTVSS VL: DIQMTQSPSSVSASVGDRVIITCRASQDINNWLAWYQQKPGKVPKLLIYTASSLQSGVPSRFSGSGSGTDFTLTIGSLQPEDFATYYCQQAHSLPITFGQGTRLEIK |
| 6.49 | 6.67 | mAb 169 (antibody, V domains shown) VH: EVQLVESGGGLVKTGGSLRLSCVASGFSFKKAWMNWVRQAPGKGLEWVGRIKRNTDGGTADYAAPVKGRFTLSRDDSKKTLFLQMNSLKTEDTAVYYCTTLDSSSYYVGYYYMDVWGKGTTVTVSS VL: DIQMTQSPSSVSASVGDRVIITCRASQDINNWLAWYQQKPGKAPKLLIYTASSLQSGVPSRFSGSGSGTDFILTIGSLQPEDFATYYCQQAHSLPITFGQGTRLEIK |
| 10.5 | 10.6 | mAb 166 (antibody, V domains shown) VH: EVQLVESGGGLVKTGGSLRLSCVASGFSFKKAWMNWVRQAPGRGLEWVGRIKRNTDGGTTDYAAPVKGRFTLSRDDSKNMLYLQMNSLKTEDTAVYYCTTLDSSSLYVGYYYMDVWGKGTTVTVSS VL: DIQMTQSPSSVSASVGDRVTITCRASQDINNWLAWYQQKPGKAPKLLIYTASSLQSGVPSRFSGSGSGTDFTLTISSLQPEDFATYFCQQAHSLPITFGQGTRLEIT |
| 19.5 | 19.4 | mAb 174 (antibody, V domains shown) VH: EVQLVESGGGLVQPGGSLRLSCAASGFTFSSNWMSWVRQAPGKGLEWVANIKQDGSEKYSVDSVKGRFTISRDNAKNSLYLQMNSLRAEDTAVYYCARDRSRNYYWYFDLWGRGTLVTVSS VL: not shown |
| 21.6 | 21.2 | mAb 175 (antibody, V domains shown) VH: EVELVESGGGLVQPGGSLRLSCAASGFTFSSNWMSWVRQAPGKGLEWVANIKQDGSEKYYVDSVKGRFTISRDNAKNSLYLKMNSLRAEDTAVYYCARDCSSNWYWYFDLWGRGTLVTVSS VL: not shown |
